Reference: patent US11059842B2, “Monosaccharide amine and 3-nitro-2-phenyl-2H-chromene based inhibitors of glucose kinases” (UNIVERSITY OF SOUTH CAROLINA, priority 2019, dated 2021)

Key:
[1] = substrate: O=C[C@H](O)[C@@H](O)[C@H](O)[C@H](O)CO; test: TcGlcK Michaelis-Menten kinetics and substrate range; type: biochemical, Trypanosoma cruzi; details: other: substrate; triplicate runs
Experimental: D-Glucose was also tested as a control with alternative substrates. The protein expression work for TcGlcK and HsHxKIV were each made possible through the E. coli strain BL21(DE3) system. Purification of each enzyme was performed through cobalt-NTA chromatography followed by size-exclusion chromatography; assessment of purity was performed by SDS-PAGE. In enzymatic assays, a time-optimum (TOPT) was determined to be 120 seconds for TcGlcK and 600 seconds for HsHxKIV; all assays were run at room temperature. A general reaction scheme included a first reaction in which the monosaccharide, ATP, and Mg^2+ react with the enzyme, e.g., TcGlcK, forming a hexose-phosphate and ADP. […] Fluorescence of NADPH was monitored using a fluorescence microplate reader with […] wavelengths of 340 nm and 485 nm, respectively.
(§1) FIG. 4 and FIG. 5 present typical Michaelis-Menten enzyme kinetic plots for D-glucose. […] Michaelis-Menten constant (KM) values, which were used as the set final assay concentrations of substrates D-glucose and ATP for the primary screens, were determined for both TcGlcK and HsHxKIV in triplicate runs. […]
All phosphorylated hexoses were shown getting converted into their corresponding products by G6PDH, in abundant quantities through a 30-second time frame. […]

[2] = substrate: O=C[C@H](O)[C@@H](O)[C@H](O)[C@H](O)CO; test: HsHxKIV Michaelis-Menten kinetics; type: biochemical, Homo sapiens; details: other: substrate; triplicate runs
Experimental: D-Glucose was also tested as a control with alternative substrates. The protein expression work for TcGlcK and HsHxKIV were each made possible through the E. coli strain BL21(DE3) system. Purification of each enzyme was performed through cobalt-NTA chromatography followed by size-exclusion chromatography; assessment of purity was performed by SDS-PAGE. In enzymatic assays, a time-optimum (TOPT) was determined to be 120 seconds for TcGlcK and 600 seconds for HsHxKIV; all assays were run at room temperature. A general reaction scheme included a first reaction in which the monosaccharide, ATP, and Mg^2+ react with the enzyme, e.g., TcGlcK, forming a hexose-phosphate and ADP. In a second reaction, hexose-phosphate with the assistance of glucose-6-phosphate dehydrogenase (G6PDH) and NADP^+ was converted to the lactone form of the hexose-phosphate and NADPH. Fluorescence of NADPH was monitored using a fluorescence microplate reader with […] wavelengths of 340 nm and 485 nm, respectively.
as §1

Protein	Km [1]	Km [2]
TcGlcK (Trypanosoma cruzi strain CL Brener) (protein) MNIKELSLHELCEELKTPAWNVPLTFVGDVGGTSARMGFVREGKNDSVHACVTRYSMKRKDITELIEFFNEIIELMPASVIKRVKAGVINVPGPVTGGAVGGPFNNLKGIARLSDYPKALFPPGRSAILNDLEAGGFGVLAVSDAHVFSEYFGVMWEGTQWRTCEQEPAGSVIGRGRCLVLAPGTGLGSSLIYYNPMNQQHIVVPLELGSQTIPMRKDIDYIQTLHAELKLLPNYENMVSGAGLEFHYRQVVRGSRPPCSAGEIAKLASEGDANACKAMKKYHEYLMRVGSEASMALLPLTIVLVGDNIVNNAFFYRNPQNLKEMHREALNHEMERFGFQSRVTYLRQKKLLNLNLMGCYRCGLDLSVGKKQKAQL	0.40 mM	–
HsHxKIV (Homo sapiens) (protein) MLDDRARMEAAKKEKVEQILAEFQLQEEDLKKVMRRMQKEMDRGLRLETHEEASVKMLPTYVRSTPEGSEVGDFLSLDLGGTNFRVMLVKVGEGEEGQWSVKTKHQMYSIPEDAMTGTAEMLFDYISECISDFLDKHQMKHKKLPLGFTFSFPVRHEDIDKGILLNWTKGFKASGAEGNNVVGLLRDAIKRRGDFEMDVVAMVNDTVATMISCYYEDHQCEVGMIVGTGCNACYMEEMQNVELVEGDEGRMCVNTEWGAFGDSGELDEFLLEYDRLVDESSANPGQQLYEKLIGGKYMGELVRLVLLRLVDENLLFHGEASEQLRTRGAFETRFVSQVESDTGDRKQIYNILSTLGLRPSTTDCDIVRRACESVSTRAAHMCSAGLAGVINRMRESRSEDVMRITVGVDGSVYKLHPSFKERFHASVRRLTPSCEITFIESEEGSGRGAALVSAVACKKACMLGQ	–	43 mM
